Source: the supplement of paper PMC9732359
± gives the uncertainty stated by the source.

Assay: protein stability index of a GFP-peptide fusion (yeast GPS) (PSI 1-4); higher = more stable; sorted into four equal gates, so the index is relative within each strain
Settings: pdr5∆
Outline: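 The protein stability index of a peptide was calculated by multiplying its read frequency in each gate by that gate's number and adding the products. The peptides were tiled 17-residue stretches of yeast proteins, fused downstream of GFP on a Cherry-expressing plasmid and carried in yeast as a pooled library. Mid-log cultures in leucine-free medium were sorted into four equal gates by GFP/Cherry ratio, and each gate's plasmids were PCR-amplified and Illumina-sequenced.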

Row | Sequence | protein stability index
1 | NKLNFIVDDKQEMIDIL [DIB1] | 3.01 ± 0.17

Same assay, conditions: san1∆

Row | Sequence | protein stability index
2 | MSNIVGIEYNRVTNTTS [RPC40] | 2.73 ± 0.08
3 | MSRDAPIKADKDYSQIL [RPN5] | 2.21 ± 0.13
4 | MSSEIAYSNTNTNTENE [SNF11] | 2.64 ± 0.24
5 | MSSVQSKILSQAPSELE [RPS7B] | 2.61 ± 0.098
6 | MSTELTVQSERAFQKQP [RPS11A] | 2.98 ± 0.11
7 | MSVPAIAPRRKRLADGL [DIS3] | 3.26 ± 0.078
8 | MTTFYKCVNCGHRWKEN [RPC11] | 2.22 ± 0.15
9 | MTVKLESITYQKIMILQ [RGR1] | 1.6 ± 0.095
10 | MTVNDQPIEKNGDKMPL [YJR042W/NUP85] | 2.45 ± 0.086
11 | MVLEATVLVIDNSEYSR [RPN10] | 1.85 ± 0.12
12 | MVNTQQPIVTGTSVISM [PRE4] | 1.95 ± 0.14
13 | MVPKRSTIITKAINQEL [YCS4] | 1.58 ± 0.09
14 | NAEKTGKRQVLIRPSSK [RPS22A] | 3.13 ± 0.14
15 | NAEKTGKRQVLLRPSSK [RPS22B] | 3.24 ± 0.046
16 | NAGTDIVMEDHGVLQGT [MED1] | 3.08 ± 0.085
17 | NAIQTEVYGINEESTNE [SIR4] | 2.9 ± 0.25
18 | NAKRSHMMKRWGYQMVW [POP1] | 2.69 ± 0.077
19 | NALWILVDLVSHFSPDI [ITC1] | 1.67 ± 0.11
20 | NANTVFSERAAMFAALQ [SWI1] | 2.4 ± 0.055
21 | NASDALKGRVVEVCLAD [RPS1B] | 3.12 ± 0.051
22 | NASLTIEDEDEPFNAGI [SMC1] | 3.39 ± 0.083
23 | NATVVDSFKYEPLAPGN [YLR335W/NUP2] | 2.98 ± 0.053
24 | NCVNDVLEFCKDYEAKT [POP1] | 3.14 ± 0.072
25 | NDAMAGGFTAYGGADYG [RPO21] | 1.92 ± 0.1
26 | NDDKKTEPDKPAFSFNS [YJL041W/NSP1] | 3.07 ± 0.032

Row | Sequence | protein stability index
27 | NDENDDEFYINVDKNLN [RPN14] | 2.94 ± 0.11
28 | NDFNDLNIDWSTTGDNG [MED2] | 2.84 ± 0.046
29 | NDGNNRTNNVPMIKAEE [NUT1] | 2.65 ± 0.17
30 | NDIAGQPQALQKSGRPV [RPO21] | 2.84 ± 0.16
31 | NDITNLQLSKTPLSIKI [SRB8] | 2.81 ± 0.056
32 | NDKSEVLKVYSMINNSN [SRB8] | 2.86 ± 0.075
33 | NDPEILKKIASIPNLFP [SWI1] | 2.36 ± 0.058
34 | NDWQMLEMLKPCVEDGF [RPB2] | 3.06 ± 0.12
35 | NEETFTVPELEIPTQIY [ARP9] | 2.48 ± 0.064
36 | NEIIRSLSDEVMRNEIR [SIR4] | 2.52 ± 0.068
37 | NEKMQLLKDIFANNLKS [SIR4] | 1.95 ± 0.083
38 | NELLLPSELNQLKMVNE [RPC82] | 3.25 ± 0.13
39 | NENDSQAIITERLVEFS [YIL149C/MLP2] | 2.83 ± 0.087
40 | NENFRLVYDVKGRFAVH [RPS4A] | 3.32 ± 0.12
41 | NENNNNSSEKNNNNNNN [MED2] | 3.04 ± 0.071
42 | NENPINKIMTNQINSFW [NUT1] | 2.43 ± 0.054
43 | NENRNTGAGVDVNTNAN [SNF11] | 3.15 ± 0.039
44 | NERRKDLAERASELDES [SMC3] | 1.98 ± 0.11
45 | NESFNRRISSMPGGYFH [YAR002W/NUP60] | 3.07 ± 0.099
46 | NEVIDKLKNENTDLKDI [PCI8] | 3.01 ± 0.048
47 | NFASGDNNTASNMLGSN [RPB3] | 3 ± 0.12
48 | NFEYDLSEYDAIQKKDN [YOR098C/NUP1] | 2.15 ± 0.26
49 | NFIVHSPMLKRIKITAN [GRR1] | 1.29 ± 0.13
50 | NFLSKIRNINVQDALLT [SNF2] | 1.77 ± 0.083
51 | NGGEDTSVENEGPVANL [REC8] | 3.06 ± 0.11

Row | Sequence | protein stability index
52 | NGILPDDELMNWRRLSG [SSN2] | 2.98 ± 0.11
53 | NGMFCQVPSSLIVRAKN [RRP4] | 2.31 ± 0.092
54 | NGQPLNQNFSLTFQPQQ [GRR1] | 3.04 ± 0.051
55 | NGQYAAFVKDMQVYLVP [RPC37] | 1.4 ± 0.073
56 | NHFIFNVESAGAMTPEE [RPC40] | 2.4 ± 0.062
57 | NHKIIARVKAFDRHCNM [SMD2] | 2.1 ± 0.086
58 | NHPELQGITRNVVNYLS [RPC17] | 2.19 ± 0.11
59 | NHSNNDIPTIADEHFWA [BRN1] | 3.2 ± 0.059
60 | NHVKQFYERLDKSTTQL [MED11] | 2.5 ± 0.052
61 | NHVMPLKPVDKLKPMNI [SIN4] | 2.83 ± 0.087
62 | NIDSLKFNELVKLMKNI [BRR2] | 1.5 ± 0.11
63 | NIGTPSFNMAQIPQQLY [SNF5] | 2.17 ± 0.056
64 | NIIESIANFSRAGKYEL [YJR042W/NUP85] | 2.87 ± 0.051
65 | NIKNTNEEATPIPSSET [RRP6] | 2.44 ± 0.048
66 | NILFSLWKLLSTVKVSD [YLR018C/POM34] | 1.58 ± 0.12
67 | NINNSSVAEKEEIRSQI [SWI3] | 2.2 ± 0.075
68 | NISNNLQKALTVKTNDE [RPN8] | 2.82 ± 0.14
69 | NISTNTNIHEPQYINYS [SSN2] | 2.74 ± 0.069
70 | NIYDQLRNKLIESNKLA [RRP6] | 1.9 ± 0.09
71 | NKEMETQRIMTNVIAFA [YLR018C/POM34] | 1.99 ± 0.15
72 | NKGAKAEDVALNEQVKK [NAS6] | 2.77 ± 0.15
73 | NKGRAVYINPSGEKIDF [BRR2] | 2.91 ± 0.071
74 | NKLEKLNSLLTYIKSEI [SMC4] | 2.66 ± 0.057
75 | NKLNFIVDDKQEMIDIL [DIB1] | 2.9 ± 0.15
